Experimental data published in US9175305B2, “Mutant hydroxyphenylpyruvate dioxygenase polypeptides and methods of use” (Syngenta Participations AG, priority 2009, dated 2015).
Where a chain is given by its changes, count along the chain named. In names and notes the source's numbering stands.

B1: V258M: V258M mutant of HPPD SEQ ID NO:14 (protein)
chain: MPPTPATATGAAAAAVTPEHAARSFPRVVRVNPRSDRFPVLSFHHVELWCADAASAAGRFSFALGAPLAARSDLSTGNSAHASLLLRSGALAFLFTAPYAPPPQEAATAATASIPSFSADAARTFAAAHGLAVRSVGVRVADAAEAFRVSVAGGARPAFAPADLGHGFGLAEVELYGDVVLRFVSYPDETDLPFLPGFERVSSPGAVDYGLTRFDHVVGNVPEMAPVIDYMKGFLGFHEFAEFTAEDVGTTESGLNSMVLANNSEAVLLPLNEPVHGTKRRSQIQTYLEYHGGPGVQHIALASNDVLRTLREMRARTPMGGFEFMAPPQAKYYEGVRRIAGDVLSEEQIKECQELGVLVDRDDQGVLLQIFTKPVGDRPTFFLEMIQRIGCMEKDEVGQEYQKGGCGGFGKGNFSELFKSIEDYEKSLEVKQSVVAQKS
modifications: mutant HPPD polypeptide
B2: V258K: V258K mutant of SEQ ID NO:14 (protein)
chain: B1 chain with M258K
modifications: mutant HPPD polypeptide

Assays:
[1] = Km and kcat of expressed HPPDs (HPLC/UV quantitation of homogentisate); format: biochemical, Avena sativa; conditions: for V217I, L271I, L271V, V258M, A326R estimated from initial rates in cell extracts, pH 7.0, 25° C., 120 μM HPP
Experimental: The assay solution was transferred to Chromacol 03-CVG HPLC vials, sealed and the amount of homogentisate formed in a 40 μl aliquot determined by injection onto a reverse phase Aqua C18 5μ 75×4.6 mm HPLC column running 5.5% acetonitrile 0.1% TFA (Buffer A) at 1.5 ml/min. The column was eluted at 1.5 ml/minute using a 2 minute wash in buffer A, followed by a 2 minute wash in a 30/70 mixture of buffer A and 100% Acetonitrile, and a further 3.5 minute wash in buffer A. The elution of homogentisate was monitored by UV at 292 nm and the amount formed in each reaction quantified by comparison with a standard calibration curve.
Km and Vmax values were determined (for example FIG. 1) using a non linear least squares fit using Grafit 4™ software (Erithacus Software, Middlesex, UK). Kcat values were determined by dividing the maximum rate, Vmax expressed in nmol/second by the number of nmoles of HPPD enzyme (based on the concentration determined by active-site titration).
Experiments were carried out as described for Table 4. ‘Sulc’ denotes sulcotrione and ‘nd’ means ‘no data’. For V217I, L271I, L271V, V258M and A326R, the relative values of kcat were estimated from comparisons of the initial rates in cell extracts of similarly prepared and expressed HPPDs in conventional enzyme activity assays at pH 7.0, 25° C. and at a substrate concentration of 120 μM HPP.

[2] = catalytic activity and herbicide resistance of mutants of SEQ ID NO:14 in extracts; format: biochemical, Avena sativa
Excerpt: These further mutations can all be optionally combined with the resistance conferring mutations to produce catalytically active variants of HPPD herbicide resistant enzymes of the current invention.

Molecule | Rate: kcat relative to non-mutated HPPD SEQ ID NO:14 [1] | catalytic activity and resistance to sulcotrione relative to control, unmutated SEQ ID NO:14 [2]
B1 | 1 | neutral mutations
B2 | – | neutral mutations
